System: T1, CcpA (Lactococcus lactis N8), ORF:ea67f8fe
T1 sequence: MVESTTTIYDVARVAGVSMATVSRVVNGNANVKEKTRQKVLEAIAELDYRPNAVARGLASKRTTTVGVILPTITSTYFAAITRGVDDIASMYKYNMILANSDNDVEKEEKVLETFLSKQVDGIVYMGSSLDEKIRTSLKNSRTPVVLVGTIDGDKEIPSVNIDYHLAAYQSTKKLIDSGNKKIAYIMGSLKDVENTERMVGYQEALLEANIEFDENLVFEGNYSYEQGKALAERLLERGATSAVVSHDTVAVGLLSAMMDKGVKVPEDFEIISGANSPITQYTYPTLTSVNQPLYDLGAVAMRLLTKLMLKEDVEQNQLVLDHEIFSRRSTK
Test: MST
Conditions: MST: Cy5-DNA 375 nM stock (10 uL per tube), CcpA from 15 uM in 16 two-fold dilutions; assay buffer, salt, pH and temperature not stated (protein purified in …)

Sequence | Kd | binding
AGCCAGTGGCGATAAGTACGATAAAATATTTAAAAGTCTATATATACCAAGGAAGAAAACGCTTTAAATTTTTGTAAATTATTAGAAATAATGATAG (double strand) [N8-1-cre] | 44 nM | –
AGCCAGTGGCGATAAGTACGATAAAATATTTAAAAGTCTATATATACCAAGGAAGAAAACTCTTTAAATTTTTGTAAATTATTAGAAATAATGATAG (double strand) [N8-2-cre] | – | no binding

From article PMC11051896
